Experimental data from article PMC11933697 (Nature Communications, 2025).
Where a chain is given by its changes, count along the chain named. Names and notes keep the numbering of the source. Like-named read-outs stand apart in the source and are kept apart here.

Tests used:
Assay in all cases: ITC
NS1/MED25 ACID complex = biological target: T1, NS1/MED25 ACID complex (human respiratory syncytial virus …, UniProt P0DOE9 1-139; Q71SY5 389-543)
T1 sequence (looked up) 1: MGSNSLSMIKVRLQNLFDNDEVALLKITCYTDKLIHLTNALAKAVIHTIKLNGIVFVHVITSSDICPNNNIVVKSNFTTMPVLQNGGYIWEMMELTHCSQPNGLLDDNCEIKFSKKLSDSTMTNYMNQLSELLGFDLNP
T1 sequence (looked up) 2: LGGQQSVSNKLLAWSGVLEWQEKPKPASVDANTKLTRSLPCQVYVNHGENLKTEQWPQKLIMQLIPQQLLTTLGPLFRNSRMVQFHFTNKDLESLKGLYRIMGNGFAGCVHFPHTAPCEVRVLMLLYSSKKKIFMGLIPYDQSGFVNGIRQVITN

hMED25 ACID (389-543) [1] = biological target: T2, hMED25 ACID (389-543) (human, UniProt Q71SY5 389-543)
T2 sequence (looked up): T1 sequence (looked up) 2

hMED25 ACID (389-543) [2] = biological target: T2, hMED25 ACID (389-543); remark: listed apart in the source
MED25 ACID I537A/R538A = biological target: T3, MED25 ACID I537A/R538A (human, UniProt Q71SY5 389-543, I537A | R538A)
T3 sequence (looked up): T1 sequence (looked up) 2 with I149A, R150A

MED25 ACID I541A/T542A = biological target: T4, MED25 ACID I541A/T542A (human, UniProt Q71SY5 389-543, I541A | T542A)
T4 sequence (looked up): T1 sequence (looked up) 2 with I153A, T154A

B1: hATF3 bZIP (88-149) (domain or fragment, human, UniProt P18847 88-149, looked up)
chain: RKKRRRERNKIAAAKCRNKKKEKTECLQKESEKLESVNAELKAQIEELKNEKQHLIYMLNLH
For B1, the Kd (NS1/MED25 ACID complex) was 3080 ± 1320 nM and the Kd (hMED25 ACID (389-543) [1]) was 1290 ± 321 nM.

B2: NS1 E110A (natural protein, human respiratory syncytial virus (hRSV), UniProt P0DOE9 1-139, looked up)
chain: T1 sequence (looked up) 1 with E110A
In the case of B2, the Kd (hMED25 ACID (389-543) [2]) is reported as 1740 ± 370 nM.

B3: NS1 N85A (natural protein, human respiratory syncytial virus (hRSV), UniProt P0DOE9 1-139, looked up)
chain: T1 sequence (looked up) 1 with N85A
B3 showed a Kd (hMED25 ACID (389-543) [2]) of 41 ± 8 nM.

B4: hRSV NS1 (1-139) (natural protein, human respiratory syncytial virus (hRSV), UniProt P0DOE9 1-139, looked up)
chain: T1 sequence (looked up) 1
B4 gave a Kd (MED25 ACID I537A/R538A) of 82 ± 10 nM, a Kd (MED25 ACID I541A/T542A) of 116 ± 30 nM and a Kd (hMED25 ACID (389-543) [2]) of 41 ± 5 nM.

B5: NS1 Y125A (natural protein, human respiratory syncytial virus (hRSV), UniProt P0DOE9 1-139, looked up)
chain: T1 sequence (looked up) 1 with Y125A
Binder B5 has a Kd (hMED25 ACID (389-543) [2]) of 182 ± 20 nM.

B6: NS1 ΔDLNP (domain or fragment, human respiratory syncytial virus (hRSV), UniProt P0DOE9 1-135, looked up)
chain: MGSNSLSMIKVRLQNLFDNDEVALLKITCYTDKLIHLTNALAKAVIHTIKLNGIVFVHVITSSDICPNNNIVVKSNFTTMPVLQNGGYIWEMMELTHCSQPNGLLDDNCEIKFSKKLSDSTMTNYMNQLSELLGF
B6: binds (hMED25 ACID (389-543) [2]).
